The assay concerns the target T1, PD-L1 expressed on MDA-MB231 cells (human, UniProt Q9NZQ7 19-290).
T1 construct: whole, on cells; Endogenous protein of a human cell line; also called MDA-MB 231 cells expressing PD-L1
Kind of assay: flow cytometry on MDA-MB231 cells after siRNA knockdown of PD-L1. On the technique in general: In flow cytometry, cells or beads pass a laser one at a time.

No end group written: not given here.

T1 sequence (Q9NZQ7 19-290): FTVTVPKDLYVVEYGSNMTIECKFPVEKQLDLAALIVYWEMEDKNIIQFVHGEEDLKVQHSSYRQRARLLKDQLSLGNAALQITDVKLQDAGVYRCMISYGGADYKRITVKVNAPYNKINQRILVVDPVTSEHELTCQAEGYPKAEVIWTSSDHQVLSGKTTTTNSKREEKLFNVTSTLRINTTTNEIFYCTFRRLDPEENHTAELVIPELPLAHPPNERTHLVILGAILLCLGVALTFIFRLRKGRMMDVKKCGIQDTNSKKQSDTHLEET

B1: PD-L1Pep-1 (peptide)
peptide: CLQKTPKQC
modifications: cysteine pairing not given here; also: N-terminal FITC, biotin or Flamma-675 depending on assay
notes: also called PBP
Consider B1, for which the binding result was “binds”.

B2: PD-L1Pep-2 (peptide)
peptide: CVRARTR
modifications: also: N-terminal FITC, biotin or Flamma-675 depending on assay
notes: Synthetic peptide CVRARTR from a T7 phage library; also called PBP
As for B2, the binding result is “binds”.

The values above are taken from patent US20210163534A1 (KYUNGPOOK NATIONAL UNIVERSITY INDUSTRY ACADEMIC COOPERATION …, published 2021).
